Data: paper PMC12494035

Target: coatomer (COPI heptamer) (Mus musculus) (UniProt Q8CIE6)
Experiment: cryo-EM structure; cryo-electron tomography and subtomogram averaging of COPI-coated vesicles and buds from an in vitro budding reaction: liposomes with 3 mol % PI4P (0.23 mg/ml), GTPγS 0.5 mM, COPI 1.36 μM, Arf1 20 μM, ARNO 4 μM, GOLPH3 9 μM; 50 mM Hepes pH 7.2, 125 mM KOAc, 30 min at 37°C; 7.5 Å map, model by rigid body fitting of domains from AlphaFold 3 predictions

Sequence of Arf1 (P84077 whole entry, the tested form may be a part): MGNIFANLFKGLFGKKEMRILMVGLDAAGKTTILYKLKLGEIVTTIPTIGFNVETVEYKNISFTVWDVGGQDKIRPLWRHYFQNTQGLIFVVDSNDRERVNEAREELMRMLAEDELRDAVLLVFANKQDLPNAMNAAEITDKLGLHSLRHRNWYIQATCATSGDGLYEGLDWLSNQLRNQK

Arf1 (from UniProt P84077 1-181) (natural protein)
stoichiometry N (per COPI heptamer): 2
